Consider one substance from paper PMC4300236.

The target in this assay is rabbit skeletal muscle type 1 ryanodine receptor (RyR1) (rabbit (Oryctolagus cuniculus)) (UniProt P11716). In words: cryo-EM structure.

Chain of rabbit skeletal muscle type 1 ryanodine receptor (RyR1), P11716 1-5037 (P11716 whole entry): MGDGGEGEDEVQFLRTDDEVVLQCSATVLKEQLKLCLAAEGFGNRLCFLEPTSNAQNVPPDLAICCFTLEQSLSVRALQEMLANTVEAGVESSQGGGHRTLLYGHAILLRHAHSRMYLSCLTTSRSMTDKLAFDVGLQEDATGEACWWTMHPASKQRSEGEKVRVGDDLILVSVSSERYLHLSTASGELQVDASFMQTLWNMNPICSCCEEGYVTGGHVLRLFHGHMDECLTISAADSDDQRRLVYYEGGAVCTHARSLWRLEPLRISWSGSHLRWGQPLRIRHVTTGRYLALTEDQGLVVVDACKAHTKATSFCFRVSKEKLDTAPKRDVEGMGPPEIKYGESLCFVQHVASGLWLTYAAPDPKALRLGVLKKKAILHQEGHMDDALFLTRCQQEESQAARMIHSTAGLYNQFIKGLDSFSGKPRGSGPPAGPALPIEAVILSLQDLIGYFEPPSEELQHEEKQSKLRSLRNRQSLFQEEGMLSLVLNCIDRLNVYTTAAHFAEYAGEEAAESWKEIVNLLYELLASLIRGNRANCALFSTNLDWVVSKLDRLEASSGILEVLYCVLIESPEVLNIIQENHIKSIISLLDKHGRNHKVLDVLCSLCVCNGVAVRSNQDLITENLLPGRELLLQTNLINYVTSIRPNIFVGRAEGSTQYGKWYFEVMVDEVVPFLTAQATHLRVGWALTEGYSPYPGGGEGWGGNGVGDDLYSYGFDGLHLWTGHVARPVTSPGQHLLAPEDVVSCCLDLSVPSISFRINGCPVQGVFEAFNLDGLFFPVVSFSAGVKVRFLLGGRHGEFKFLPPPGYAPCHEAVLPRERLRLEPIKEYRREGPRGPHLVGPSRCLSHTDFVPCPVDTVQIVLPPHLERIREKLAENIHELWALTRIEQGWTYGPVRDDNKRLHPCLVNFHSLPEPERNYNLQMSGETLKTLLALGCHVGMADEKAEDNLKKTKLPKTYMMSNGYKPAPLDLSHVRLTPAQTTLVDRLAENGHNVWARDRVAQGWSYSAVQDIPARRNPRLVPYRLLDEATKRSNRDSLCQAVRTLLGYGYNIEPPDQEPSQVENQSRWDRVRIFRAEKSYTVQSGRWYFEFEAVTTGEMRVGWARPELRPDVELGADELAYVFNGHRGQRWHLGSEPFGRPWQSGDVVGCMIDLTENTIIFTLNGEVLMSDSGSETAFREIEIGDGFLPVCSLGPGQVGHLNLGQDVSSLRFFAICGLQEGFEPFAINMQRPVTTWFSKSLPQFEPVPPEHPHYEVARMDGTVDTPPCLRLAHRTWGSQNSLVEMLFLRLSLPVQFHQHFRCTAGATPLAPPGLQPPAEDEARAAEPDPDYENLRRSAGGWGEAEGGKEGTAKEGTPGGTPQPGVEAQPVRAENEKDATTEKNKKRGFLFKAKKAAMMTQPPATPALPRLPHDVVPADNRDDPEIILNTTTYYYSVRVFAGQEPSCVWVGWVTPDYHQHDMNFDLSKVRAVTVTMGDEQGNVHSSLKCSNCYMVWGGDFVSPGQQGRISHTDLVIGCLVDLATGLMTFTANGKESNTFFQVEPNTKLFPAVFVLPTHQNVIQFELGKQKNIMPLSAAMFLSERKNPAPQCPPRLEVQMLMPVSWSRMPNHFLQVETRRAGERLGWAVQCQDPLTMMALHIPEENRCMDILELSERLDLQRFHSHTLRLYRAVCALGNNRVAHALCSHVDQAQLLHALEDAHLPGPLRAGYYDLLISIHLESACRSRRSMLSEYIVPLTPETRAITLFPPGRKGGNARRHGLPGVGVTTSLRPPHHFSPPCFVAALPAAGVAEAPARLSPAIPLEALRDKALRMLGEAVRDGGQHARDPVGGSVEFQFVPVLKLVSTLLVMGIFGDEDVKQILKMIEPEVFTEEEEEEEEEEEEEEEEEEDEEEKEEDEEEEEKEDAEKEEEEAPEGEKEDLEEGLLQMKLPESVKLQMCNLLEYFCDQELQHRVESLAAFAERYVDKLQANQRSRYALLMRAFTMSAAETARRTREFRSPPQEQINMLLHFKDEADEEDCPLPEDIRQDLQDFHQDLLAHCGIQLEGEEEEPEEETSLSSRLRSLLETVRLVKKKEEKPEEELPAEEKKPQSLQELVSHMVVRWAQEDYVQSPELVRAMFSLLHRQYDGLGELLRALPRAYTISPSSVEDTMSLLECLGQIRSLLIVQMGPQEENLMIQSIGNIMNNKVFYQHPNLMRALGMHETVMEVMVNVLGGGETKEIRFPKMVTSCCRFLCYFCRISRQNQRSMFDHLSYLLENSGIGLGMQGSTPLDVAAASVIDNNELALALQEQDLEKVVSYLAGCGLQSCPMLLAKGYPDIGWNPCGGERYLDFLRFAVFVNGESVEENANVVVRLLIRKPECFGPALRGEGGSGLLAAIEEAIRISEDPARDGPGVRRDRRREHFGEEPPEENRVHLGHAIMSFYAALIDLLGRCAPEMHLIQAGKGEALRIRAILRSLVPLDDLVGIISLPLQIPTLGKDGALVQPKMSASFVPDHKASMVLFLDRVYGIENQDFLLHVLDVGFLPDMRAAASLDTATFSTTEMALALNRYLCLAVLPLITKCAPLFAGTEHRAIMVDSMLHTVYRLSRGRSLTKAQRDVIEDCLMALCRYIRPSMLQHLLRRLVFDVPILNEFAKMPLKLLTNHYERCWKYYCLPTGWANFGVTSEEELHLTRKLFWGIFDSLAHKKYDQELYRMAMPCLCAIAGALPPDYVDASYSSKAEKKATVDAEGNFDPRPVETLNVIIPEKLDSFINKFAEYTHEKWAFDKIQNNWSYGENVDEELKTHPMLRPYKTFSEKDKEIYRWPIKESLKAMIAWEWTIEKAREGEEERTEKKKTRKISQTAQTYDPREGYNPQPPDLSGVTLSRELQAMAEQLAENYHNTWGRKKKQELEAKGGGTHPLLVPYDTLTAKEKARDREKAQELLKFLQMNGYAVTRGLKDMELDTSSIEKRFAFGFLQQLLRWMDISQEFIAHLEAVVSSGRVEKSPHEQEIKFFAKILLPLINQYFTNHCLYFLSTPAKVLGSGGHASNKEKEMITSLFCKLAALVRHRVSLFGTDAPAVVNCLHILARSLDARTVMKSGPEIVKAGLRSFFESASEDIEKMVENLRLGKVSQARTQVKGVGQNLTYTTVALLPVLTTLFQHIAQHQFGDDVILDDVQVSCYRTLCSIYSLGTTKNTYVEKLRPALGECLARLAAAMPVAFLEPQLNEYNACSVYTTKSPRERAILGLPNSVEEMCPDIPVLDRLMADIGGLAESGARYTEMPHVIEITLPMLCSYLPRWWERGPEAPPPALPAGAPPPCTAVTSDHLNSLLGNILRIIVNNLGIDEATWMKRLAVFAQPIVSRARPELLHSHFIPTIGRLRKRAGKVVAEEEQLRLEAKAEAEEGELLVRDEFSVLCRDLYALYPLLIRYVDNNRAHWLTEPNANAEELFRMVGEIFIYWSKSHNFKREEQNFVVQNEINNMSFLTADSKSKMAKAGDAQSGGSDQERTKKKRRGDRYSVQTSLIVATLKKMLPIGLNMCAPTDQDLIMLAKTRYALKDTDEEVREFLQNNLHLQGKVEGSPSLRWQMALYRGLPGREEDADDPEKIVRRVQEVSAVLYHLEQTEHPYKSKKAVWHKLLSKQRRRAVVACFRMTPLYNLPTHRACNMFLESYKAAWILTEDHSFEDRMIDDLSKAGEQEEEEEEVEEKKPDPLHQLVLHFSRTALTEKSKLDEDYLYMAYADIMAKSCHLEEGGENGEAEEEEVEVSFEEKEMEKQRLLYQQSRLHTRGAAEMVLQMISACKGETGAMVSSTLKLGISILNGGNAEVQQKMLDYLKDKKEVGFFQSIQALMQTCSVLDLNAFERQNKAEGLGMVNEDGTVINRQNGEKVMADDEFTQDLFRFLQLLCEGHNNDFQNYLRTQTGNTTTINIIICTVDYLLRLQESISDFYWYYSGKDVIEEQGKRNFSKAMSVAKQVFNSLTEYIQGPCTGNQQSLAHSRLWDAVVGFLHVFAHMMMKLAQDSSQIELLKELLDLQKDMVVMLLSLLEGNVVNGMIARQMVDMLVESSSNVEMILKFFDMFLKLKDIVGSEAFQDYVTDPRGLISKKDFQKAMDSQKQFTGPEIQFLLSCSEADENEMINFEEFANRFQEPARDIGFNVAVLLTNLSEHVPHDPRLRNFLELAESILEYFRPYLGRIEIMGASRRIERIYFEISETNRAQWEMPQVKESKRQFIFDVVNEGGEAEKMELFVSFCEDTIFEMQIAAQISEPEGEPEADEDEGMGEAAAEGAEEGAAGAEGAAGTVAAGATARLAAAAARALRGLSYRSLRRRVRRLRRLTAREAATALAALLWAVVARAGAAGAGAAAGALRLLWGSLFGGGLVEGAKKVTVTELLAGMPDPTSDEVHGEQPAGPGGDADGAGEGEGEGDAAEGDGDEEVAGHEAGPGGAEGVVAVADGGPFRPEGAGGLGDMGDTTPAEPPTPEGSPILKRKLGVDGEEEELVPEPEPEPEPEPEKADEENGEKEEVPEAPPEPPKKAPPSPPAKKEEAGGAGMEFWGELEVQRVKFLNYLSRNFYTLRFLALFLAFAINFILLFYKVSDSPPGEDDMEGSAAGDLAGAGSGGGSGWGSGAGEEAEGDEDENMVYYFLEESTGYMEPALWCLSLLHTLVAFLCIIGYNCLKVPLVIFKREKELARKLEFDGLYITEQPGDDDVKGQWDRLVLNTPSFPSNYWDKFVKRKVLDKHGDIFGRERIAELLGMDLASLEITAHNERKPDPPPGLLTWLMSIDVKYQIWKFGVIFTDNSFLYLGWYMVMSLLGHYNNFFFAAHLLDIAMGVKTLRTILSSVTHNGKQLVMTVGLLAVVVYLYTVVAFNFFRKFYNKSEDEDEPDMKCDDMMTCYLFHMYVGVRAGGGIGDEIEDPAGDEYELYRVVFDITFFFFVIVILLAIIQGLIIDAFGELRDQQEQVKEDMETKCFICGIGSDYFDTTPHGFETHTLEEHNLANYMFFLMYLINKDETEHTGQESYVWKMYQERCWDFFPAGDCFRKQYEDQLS

“rabbit skeletal muscle type 1 ryanodine receptor (RyR1), P11716 1-5037” registered a stoichiometry N of 4.

The term stoichiometry N denotes the number of molecules, sites or subunits per partner or assembly.
